Data reported in patent publication US20170121416A1 (AbbVie / Abbott, published 2017).

Assays:
[1] = target: T1, Nectin-4 on cells (MCF-7, SKBR3) (UniProt Q96NY8 32-510, limits assumed); assay: cell-based or functional assay
T1 sequence (looked up): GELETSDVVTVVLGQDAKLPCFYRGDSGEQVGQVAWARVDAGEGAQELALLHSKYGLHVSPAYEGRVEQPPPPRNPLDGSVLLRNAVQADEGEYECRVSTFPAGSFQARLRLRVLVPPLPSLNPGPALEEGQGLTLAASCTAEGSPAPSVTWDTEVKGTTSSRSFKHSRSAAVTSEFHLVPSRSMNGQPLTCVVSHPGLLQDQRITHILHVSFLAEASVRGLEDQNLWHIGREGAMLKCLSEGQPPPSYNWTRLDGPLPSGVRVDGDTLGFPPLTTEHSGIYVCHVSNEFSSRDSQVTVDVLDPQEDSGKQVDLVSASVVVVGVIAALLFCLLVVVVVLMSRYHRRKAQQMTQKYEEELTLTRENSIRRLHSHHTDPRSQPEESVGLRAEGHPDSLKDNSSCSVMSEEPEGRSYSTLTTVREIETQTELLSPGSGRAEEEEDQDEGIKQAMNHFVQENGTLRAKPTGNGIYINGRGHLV

[2] = target: T2, human CD324 on cells (MCF7, BR22, NTX tumor cells, 293-hCD324) (human, UniProt P12830 155-882); assay: cell-based or functional assay
T2 sequence: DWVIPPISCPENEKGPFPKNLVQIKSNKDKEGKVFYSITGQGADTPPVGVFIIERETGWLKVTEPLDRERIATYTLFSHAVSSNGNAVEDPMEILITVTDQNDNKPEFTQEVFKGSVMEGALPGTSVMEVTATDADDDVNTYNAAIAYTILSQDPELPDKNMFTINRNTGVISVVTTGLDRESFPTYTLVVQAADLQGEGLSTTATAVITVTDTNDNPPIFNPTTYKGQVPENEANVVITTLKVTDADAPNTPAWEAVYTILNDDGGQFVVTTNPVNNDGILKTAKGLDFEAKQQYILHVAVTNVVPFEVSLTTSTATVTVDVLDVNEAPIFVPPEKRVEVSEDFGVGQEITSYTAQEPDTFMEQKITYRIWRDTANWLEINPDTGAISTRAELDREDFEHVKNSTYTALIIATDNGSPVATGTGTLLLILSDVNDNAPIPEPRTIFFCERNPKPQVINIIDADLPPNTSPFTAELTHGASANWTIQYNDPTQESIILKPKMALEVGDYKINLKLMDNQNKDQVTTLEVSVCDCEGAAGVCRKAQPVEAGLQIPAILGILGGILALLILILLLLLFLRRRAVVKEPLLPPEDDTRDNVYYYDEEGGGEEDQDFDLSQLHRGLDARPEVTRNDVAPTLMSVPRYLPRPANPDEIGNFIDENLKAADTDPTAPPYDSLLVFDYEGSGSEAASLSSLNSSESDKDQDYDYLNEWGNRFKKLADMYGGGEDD

[3] = target: T2, human CD324 on cells (MCF7, BR22, NTX …); assay: cell-based or functional assay; remark: listed apart in the source
[4] = target: T3, human CD324-His recombinant protein (Sino Biological, Inc.) (human, UniProt P12830 155-709); assay: SPR (Biacore), similar experiments as for murine SC10.17; humanized antibody
T3 construct: bought soluble protein; The antigen of the Biacore experiment is only called human CD324 antigen; also called hCD324-His; human CD324 antigen; not shown: His tag
T3 sequence: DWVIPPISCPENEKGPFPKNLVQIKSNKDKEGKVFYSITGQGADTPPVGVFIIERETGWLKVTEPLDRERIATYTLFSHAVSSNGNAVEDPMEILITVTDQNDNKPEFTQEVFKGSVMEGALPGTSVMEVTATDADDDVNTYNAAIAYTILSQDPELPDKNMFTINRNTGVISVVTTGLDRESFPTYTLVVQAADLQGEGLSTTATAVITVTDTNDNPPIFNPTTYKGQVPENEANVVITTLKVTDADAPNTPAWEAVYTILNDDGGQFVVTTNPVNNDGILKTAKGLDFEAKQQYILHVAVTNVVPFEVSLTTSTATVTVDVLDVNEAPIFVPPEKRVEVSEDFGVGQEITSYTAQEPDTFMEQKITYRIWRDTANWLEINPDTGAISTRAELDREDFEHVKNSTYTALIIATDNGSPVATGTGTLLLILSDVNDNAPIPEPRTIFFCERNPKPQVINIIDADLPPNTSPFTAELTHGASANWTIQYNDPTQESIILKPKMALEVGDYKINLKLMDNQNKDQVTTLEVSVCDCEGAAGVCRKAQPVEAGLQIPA

[5] = target: T4, Nectin-4 protein (R&D Systems) (UniProt Q96NY8 32-349); assay: bridging ELISA: Nectin-4 coated, detection with biotinylated CD324 W2A and streptavidin-HRP
T4 construct: bought; coated on the plate of the bridging ELISA
T4 sequence (looked up): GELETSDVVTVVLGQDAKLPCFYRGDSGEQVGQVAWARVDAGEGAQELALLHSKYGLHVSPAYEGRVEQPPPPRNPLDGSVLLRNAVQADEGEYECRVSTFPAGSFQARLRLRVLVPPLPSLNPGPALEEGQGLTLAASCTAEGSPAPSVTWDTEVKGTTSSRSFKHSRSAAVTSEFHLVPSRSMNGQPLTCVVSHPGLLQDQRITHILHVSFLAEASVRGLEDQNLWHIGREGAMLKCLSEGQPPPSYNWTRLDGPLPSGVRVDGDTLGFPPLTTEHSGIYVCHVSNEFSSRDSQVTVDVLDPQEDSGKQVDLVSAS

[6] = target: T2, human CD324 on cells (MCF7, BR22, NTX …); assay: cell-based or functional assay; remark: listed apart in the source

B1: hSC10.17 (antibody, V domains shown)
VH: EVQLVESGGGLVQPGGSLRLSCAASGFTFSSYGMHWVRQAPGKGLEWVAYITTRSSTIYYADSVKGRFTISRDNAKNSLYLQMNSLRAEDTAVYYCTREPLTGYYAMDYWGQGTSVTVSS
VL: DVVMTQSPLSLPVTLGQPASISCRSSQSIVHSDGNTYLEWYQQRPGQSPRRLIYKVSNRFSGVPDRFSGSGSGTDFTLKISRVEAEDVGVYYCFQGSHAPWTFGGGTKVEIK
notes: humanized (CDR-grafted) SC10.17; also called humanized SC10.17 mAb; hSC10.17 IgG
- IC50 on SKBR3 (pM), in vitro killing with anti-human IgG Fab-saporin [1]: > 1000 pM
- IC50 on 293-hCD324 (pM), in vitro killing with anti-human IgG Fab-saporin [2]: 0.27 pM
- IC50 on MCF-7 (pM), in vitro killing with anti-human IgG Fab-saporin [2]: 3.1 pM
- EC50 of killing of MCF7 cells, anti-human Fab-saporin assay [3]: 4.4 pM
- Kd [4]: 3.8 nM
- binding result [5]: no binding
- EC50 (MCF7, Fab-saporin killing) [6]: 4.44 pM
